{"source": "paper PMC5383425", "about": "“Differential CLE peptide perception by plant receptors implicated from structural and functional analyses of TDIF-TDR interactions” (PLoS ONE, 2017)", "parents": {"B1": {"name": "extracellular domain of A. thaliana TDR (residues 30-642) [modified: N-glycosylated at N111, N356, N378, N471 and N525 (one GlcNAc visible on each in the structures); N-glycosylated at N111, N356, N378, N471 and N525 (one … (parent)", "chain 1": "HEVPSGPNPISN", "chain 2": "LKFSPQLLSLLSLKTSLSGPPSAFQDWKVPVNGQNDAVWCSWSGVVCDNVTAQVISLDLSHRNLSGRIPIQIRYLSSLLYLNLSGNSLEGSFPTSIFDLTKLTTLDISRNSFDSSFPPGISKLKFLKVFNAFSNNFEGLLPSDVSRLRFLEELNFGGSYFEGEIPAAYGGLQRLKFIHLAGNVLGGKLPPRLGLLTELQHMEIGYNHFNGNIPSEFALLSNLKYFDVSNCSLSGSLPQELGNLSNLETLFLFQNGFTGEIPESYSNLKSLKLLDFSSNQLSGSIPSGFSTLKNLTWLSLISNNLSGEVPEGIGELPELTTLFLWNNNFTGVLPHKLGSNGKLETMDVSNNSFTGTIPSSLCHGNKLYKLILFSNMFEGELPKSLTRCESLWRFRSQNNRLNGTIPIGFGSLRNLTFVDLSNNRFTDQIPADFATAPVLQYLNLSTNFFHRKLPENIWKAPNLQIFSASFSNLIGEIPNYVGCKSFYRIELQGNSLNGTIPWDIGHCEKLLCLNLSQNHLNGIIPWEISTLPSIADVDLSHNLLTGTIPSDFGSSKTITTFNVSYNQLIGPIPSGSFAHLNPSFFSSNEGLCGDLVGKPCNSDRFNAGNADIDG"}}, "data": [{"variants_of": "B1", "assay": "ITC", "settings": "with Tracheary Element Differentiation Inhibitory Factor (TDIF) peptide [modified: hydroxyproline at 4 and 7, parent: 103 nM", "units": {"Kd": "nM"}, "values": [{"variant": "chain 2 S276A", "Kd": 455}, {"variant": "chain 2 R109A F132A S133A S158A Y159A", "Kd": 3240}, {"variant": "chain 2 R392A R394A", "Kd": 306}, {"variant": "chain 2 F250A", "Kd": 307}, {"variant": "chain 2 W324A", "Kd": 862}, {"variant": "chain 2 F252A", "Kd": 787}, {"variant": "chain 2 F250A F252A", "Kd": 887}, {"variant": "chain 2 Y205A", "Kd": 1650}]}, {"variants_of": "B1", "assay": "ITC", "settings": "with extracellular domain of A. thaliana TDR (residues 30-642) [modified: N-glycosylated at N111, N356, N378, N471 and N525 (one GlcNAc visible on each in the struct); parent: 103 nM", "units": {"Kd": "nM"}, "values": [{"variant": "chain 1 G6A", "Kd": 1440}, {"variant": "chain 1 G6T", "Kd": 2080}, {"variant": "chain 1 E2R", "Kd": 543}, {"variant": "chain 1 E2A", "Kd": 327}, {"variant": "chain 1 H1A E2A V3A", "Kd": 252000}, {"variant": "chain 1 I10A", "Kd": 641}, {"variant": "chain 1 N12A", "Kd": 4700}, {"variant": "chain 1 H1A", "Kd": 11800}, {"variant": "chain 1 H1R", "Kd": 329}, {"variant": "chain 1 V3A", "Kd": 1400}, {"variant": "chain 1 N8A", "Kd": 308}]}, {"variants_of": "B1", "assay": "ITC", "settings": "with extracellular domain of A. thaliana TDR (residues 30-642) [modified: N-glycosylated at N111, N356, N378, N471 and N525 (one GlcNAc visible on each in the struct); parent: 1", "values": [{"variant": "chain 1 H1A E2A V3A", "ratio to parent": 2450}, {"variant": "chain 1 I10A", "ratio to parent": 6.2}, {"variant": "chain 1 N12A", "ratio to parent": 45.6}]}, {"variants_of": "B1", "assay": "ITC", "settings": "with Tracheary Element Differentiation Inhibitory Factor (TDIF) peptide [modified: hydroxyproline at 4 and 7, parent: 1", "values": [{"variant": "chain 2 F252A", "ratio to parent": 7.6}, {"variant": "chain 2 Y205A", "ratio to parent": 16}]}]}
